Columns and labels:
Test in all cases: purified protein
Settings in all cases: co-substrate NAD+
[1] = system: Nc1nc2c(ncn2[C@@H]2O[C@H](COP(=O)(O)OP(=O)(O)O[C@H]3O[C@H](CO)[C@@H](O)[C@H](O)[C@@H]3O)[C@@H](O)[C@H]2F)c(=O)[nH]1
[2] = system: Nc1nc2c(ncn2[C@@H]2O[C@H](COP(=O)(O)OP(=O)(O)O[C@H]3O[C@H](CO)[C@@H](O)[C@H](O)[C@@H]3F)[C@@H](O)[C@H]2O)c(=O)[nH]1
[3] = system: Nc1nc2c(ncn2[C@@H]2O[C@H](COP(=O)(O)OP(=O)(O)O[C@H]3O[C@H](CO)[C@@H](O)[C@H](O)[C@@H]3O)[C@@H](O)[C@H]2O)c(=O)[nH]1
[4] = system: Nc1nc2c(ncn2[C@@H]2O[C@H](COP(=O)(O)OP(=O)(O)O[C@H]3O[C@H](CO)[C@@H](O)[C@H](O)[C@@H]3F)[C@@H](O)[C@H]2F)c(=O)[nH]1

Substance: GDP-mannose dehydrogenase (GMD; PaGMD) (Pseudomonas aeruginosa PAO1)
- Km [1]: 20.95 ± 0.83 µM
- kcat [1]: 0.0507 ± 0.00067 s⁻¹
- Km [2]: 134.29 ± 12.78 µM
- kcat [2]: 0.0655 ± 0.00267 s⁻¹
- Km [3]: 18.18 ± 3.82 µM
- kcat [3]: 0.0427 ± 0.00333 s⁻¹
- Km [4]: 87.72 ± 5.82 µM
- kcat [4]: 0.0407 ± 0.0012 s⁻¹

Source: article PMC12381709, “Fluorinating the Sugar and the Nucleotide: Exploring Fluorination Within GDP-Mannose Probes Using Chemoenzymatic Synthesis” (JACS Au, 2025)
